Laboratory results: patent publication US20250326867A1, “De novo designed chlorophyll special pair proteins” (University of Washington, priority 2024, published 2025)

B1: tj79C2-H121A (designed binder)
chain: SGSGSREDELIARYQILLAELAAERADIAAERTGDPRVRELARELKRLAQEAAEEVKRDPSSSDVNMALLLILLMIELAVRALEAAERTGDPEVRELARELVRLAVEAAEEVQRNPSSSDVWQALHLIMLAIWAAVAALEAAERTGDPEVRELARELVRLAVEAAEEVQRNPSSKEVYMALLLILIAILEAVLSLLRAERSGDPEKREKARERVREAVERAEEVQRDPSGW
notes: Designed homodimer subunit, after TEV cleavage
B2: tj79C2-H69B (designed binder)
chain: SGSGSREDELHARYLILSAELAAERADIAAERTGDPRVRELARELKRLAQEAAEEVKRDPSSSDVNKALLLITHAILIAVAALEAAERTGDPEVRELARELVRLAVEAAEEVQRNPSSSDVNRALFLIMMAIMMAVKALEAAERTGDPEVRELARELVRLAVEAAEEVQRNPSSKEVDMALLLILIAILEAVLSLLRAERSGDPEKREKARERVREAVERAEEVQRDPSGW
notes: as for B1
B3: tj79C2-H132A (designed binder)
chain: SGSGSREDELRARLLILLAELAAETLDIIAERTGDPRVRELARELIRLLQEAAEEVKRDPSSSDVNEALKLIVEAIFMAIFILLFAEQTGDPEVRELARELVRLAVEAAEEVQRNPSSSDVNEALKLIIQAIILAVHALLAAEKTGDPEVRELARELVRLAVEAAEEVQRNPSSKEVDMALLLILIAILEAVLSLLRAQRSGDPEKREKARERVREAVERAEEVQRDPSGW
notes: as for B1
B4: tj79C2-H121B (designed binder)
chain: SGSGSREDELLARLLLLLAELAAERADIAAERTGDPRVRELARELKRLAQEAAEEVKRDPSSSDVLMALLLIIMAIEAAVEALEAAERTGDPEVRELARELVRLAVEAAEEVQRNPSSSDVWWALHLILFAIQLAVRALEAAERTGDPEVRELARELVRLAVEAAEEVQRNPSSKEVDMALLLILIAILEAVLSLLRAERSGDPEKREKARERVREAVERAEEVQRDPSGW
notes: as for B1
B5: tj79C2-H121C (designed binder)
chain: SGSGSREDELLARLLILLAELAAERADIAAERTGDPRVRELARELKRLAQEAAEEVKRDPSSSDVLMLLLLIVLAIQAAVEALEAAERTGDPEVRELARELVRLAVEAAEEVQRNPSSSDVFMALHLILFAIQLAVQALEAAERTGDPEVRELARELVRLAVEAAEELQRNPSSKEVQMALLLILIAILEAVLSLLRAERSGDPEKREKARERVREAVERAEEVQRDPSGW
notes: as for B1
B6: SP3 (designed binder)
chain: SGSSEELARESAEAAWRLAQAGTRLMLAWIRGDLKEIAEALIELARAVQELARVAKEYGNDELAKTAALLAAHVAMLAILVLIRAIKEGDDEVRELAKTAIKLASTAAKIVLDALPTAEEVRQITLLAKLAEEAADKKNEDSALAVGIAAAAVLLALLALEAAQKAGIEEAEKGARLLLKLAMDAARKKNPEEALAVFNAALDVSIALKLLQSAKRAGSEETRKLAEEMLRQALERARK
notes: as for B1
B7: JIa (designed binder)
chain: SGSSEELARESAEAAWRLAQAGTRAALAAIRGDLKELAEALIELARAVQELARVAKEYGNDELAKTAALLAAHVALLAILVLIRAIKEGDDEVRELAKTAIKLASTAAKIVLDALPTAEEVRQITLLAKLAEEAADKKNEDSALAVGIAAAAVLAALLALEAAQKAGIEEAEKGARLLLKLAMDAARKKNPEEALAVLNAALDVSIALRLLQSAKRAGSEETRKLAEEMLRQALERARK
notes: as for B1
B8: JIc (designed binder)
chain: SGSSEELARESAEAAWRLAQAATRLVLALIRGDLKEVAEALIELARAVQELARVAKEYGNDELAKTAAWLAAHVAMLAIYVLIRAIKEGDDEVRELAKTAIKLASTAAKIVLDALPTAEEVRQITLLAKLAEEAADKKNEDSALAVGIAAIAVLIALLALEAAQKAGIEEAEKGARLLLKLAMDAARKKNPEEALAVLNAALDVSIALRLLQSAKRAGSEETRKLAEEMLRQALERARK
notes: as for B1
B9: SP3x (designed binder)
chain: SGSSEELARESAEAAWRLAQASTRATLAMIRGDLKELAEALIELARAVQELARVAKEYGNDELAKTAALLAAHVAMLAIWVLIRAIKEGDDEVRELAKTAIKLASTAAKIVLDALPTAEEVRQITLLAKLAEEAADKKNEDSALAVGIAAIAVIIALWALEAAQKAGIEEAEKGARLLLKLAMDAARKKNPEEALAVLNAALDVSIALQLLQSAKRAGSEETRKLAEEMLRQALERARKKN
notes: as for B1
B10: tj79C2-H125A (designed binder)
chain: SGSGSREDELWARYTLLLAELAAERADIAAERTGDPRVRELARELKRLAQEAAEEVKRDPSSSDVYLALILIVMAIYMAVLALEAAERTGDPEVRELARELVRLAVEAAEEVQRNPSSSDVNKALLLIVHAIMAAVAALEAAERTGDPEVRELARELVRLAVEAAEEVQRNPSSKEVDMALLLIQIAILEAVLSLLRAERSGDPEKREKARERVREAVERAEEVQRDPSGW
notes: as for B1
B11: D13_H11A (designed binder)
chain: SGSGSEEKEWQAMTLHLIFAIKILKEMLEEDPNDEEIKKILELLWQISKTQQDDPHNEEQKEWLMLLLLIIMALRLVQEMLKEDPNDEEIEKILELLKQILRTLREDPHNEEQKEWLILLLIIILLLDSVQEMLKEDPNDEEIEKILELLKQILRTLREDPHNEEQKQWLIQLINALILLLFIQEKLKEDPNDEEAEEELERLKEQLRRLRE
notes: as for B1
B12: D13_H11B (designed binder)
chain: SGSGSEEKEWQAMTAHLIYAIKILKEMLEEDPNDEEIKKILELLWQISKTQQDDPHNEEQKEWLILLLIIILALRLVQEMLKEDPNDEEIEKILELLKQILRTLREDPHNEEQKEWLSLLFIIIALLDSVQEMLKEDPNDEEIEKILELLKQILRTLREDPHNEEQKQWLIQLINALILLLFIQEKLKEDPNDEEAEEELERLKEQLRRLRE
notes: as for B1
B13: D13_H11C (designed binder)
chain: SGSGSEEKEWAIMTAHLIYAIKVLKEMLEEDPNDEEIKKILELLWQISKTQQDDPHNEEQKEWLMLLLGIILALRLVQEMLKEDPNDEEIEKILELLKQILRTLREDPHNEEQKEWLALLVIIILLLDSVQEMLKEDPNDEEIEKILELLKQILRTLREDPHNEEQKQWLIQLINALILLLFIQEKLKEDPNDEEAEEELERLKEQLRRLRE
notes: as for B1
B14: D13_H60A (designed binder)
chain: SGSGSEEKEWMLLTAMLIMAIKTLKEMLEEDPNDEEIKKILELLWQISKTQQDDPHNEEQKEWLHLLLIIIMALRLVQEMLKEDPNDEEIEKILELLKQILRTLREDPHNEEQKEWLILLFIIIALLDSVQEMLKEDPNDEEIEKILELLKQILRTLREDPHNEEQKQWLIQLINALILLLFIQEKLKEDPNDEEAEEELERLKEQLRRLRE
notes: as for B1
B15: D13_H60B (designed binder)
chain: SGSGSEEKEWQLLTWLLIMIIKTLKEMLEEDPNDEEIKKILELLWQISKTQQDDPHNEEQKEWLHLLAAIILALRLVQEMLKEDPNDEEIEKILELLKQILRTLREDPHNEEQKAWLLLLVIIIALLDSVQEMLKEDPNDEEIEKILELLKQILRTLREDPHNEEQKQWLIQLINALILLLFIQEKLKEDPNDEEAEEELERLKEQLRRLRE
notes: as for B1

Target: the molecule itself
Assay: size-exclusion chromatography, self-association (homodimer)
Experimental: FIG. 7. Size exclusion chromatography (SEC) traces of purified SP apo-proteins. Proteins were injected as 0.5 mL aliquots onto a Superdex™ 200 Increase 10/300 GL column (Cytiva Life Sciences). The narrow, isolated peaks indicate that the samples contain monodisperse protein. Running buffer was 150 mM NaCl, 10 mM Tris at pH 8. Proteins were purified by Ni-NTA and one round of SEC prior to collecting the data shown.
Proteins were purified by Ni-NTA and size-exclusion chromatography (SEC) (FIG. 7). […] A slightly lower predicted radius of gyration (Rg) value compared to experimental SAXS data is likely due to a dense hydration shell around the highly charged SP proteins (Svergun et al. 1998; Kim et al. 2016). The far ultraviolet (UV) circular dichroism (CD) spectra of three SP proteins that expressed in high yield (≥140 mg/L) show the proteins are highly α-helical with and without the synthetic Chl a derivative, Zn pheophorbide a methyl ester (ZnPPaM). Thermal denaturation curves monitored by the CD signal at 222 nm indicate that all three proteins are highly thermostable in the apo- and holo-states (FIG. 2).

Row | Protein | binding result
1 | B1 | binds
2 | B2 | binds
3 | B3 | binds
4 | B4 | binds
5 | B5 | binds
6 | B6 | binds
7 | B7 | binds
8 | B8 | binds
9 | B9 | binds
10 | B10 | binds
11 | B11 | binds
12 | B12 | binds
13 | B13 | binds
14 | B14 | binds
15 | B15 | binds
